Experiment: yeast display, Sf9 membrane polyspecificity reagent, FACS + sequencing; frameworks hold sequencing errors
Method in brief: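 Nanobodies from a synthetic yeast display library (Saccharomyces cerevisiae BJ5465), induced 36–48 hours with galactose, were stained 1 hour at 4 °C with 10% biotinylated, detergent-solubilized Sf9 membrane reagent, enriched on streptavidin microbeads, then FACS-sorted. Anti-HA (expression) and streptavidin (reagent binding) fluorescence set low and high (top ~1%) gates. Polyreactivity labels come from the gate of origin. Genes were colony-PCR amplified, MiSeq 2 × 250 sequenced and filtered by CDR length.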

Sequence	polyreactivity (PSR sort gate)
QVQLVESGGGLFQAGGILRLTCAASGLTIYDYAMRWSRQAPAKERELVAANTRSAGSTYYADSVKGRFTISRDYAKYTVYLLMNSLKPEDTAVYYCAARGKIRYQGYYGSDQYYYWGQGTQVSVSS	high polyreactivity
QVQLVESGGGLVQAGGSLRLSCAASGRTFGYNAMGWYRQAPGKERELVATISSSTVSTSYADSVKGRFTISRDNAKNTVYLQMNSLKPEDPAVYYCNARSRVSPTERVPYDSWGQGTQVTVSS	low polyreactivity
QVQLVESGGGLVQAGGSLRLSCAASGSIFGRNAMGWYRQAPGKERELVADIWNGGSTYYADSVKGRFTISRDNAKNTVYLQMNCLKPEDTAVYYCNADANDDGRFGGYIKYDYWGQGTQVTVSS	low polyreactivity
QVQLVESGGGLVQAGGRLRLSCAASGSIFVGYAMGWYRQAPGKERELVAAISTRGGSTYYAHSVKGRFTISRDNAKNTVYLQMNSLKPEDTAVYYSAADYLDSTYGYVYGWDDYWGQGTQVTVST	low polyreactivity
QVKLVESAAGLVQAGGSLRLSCDASGFTFALYANGLYIQAPRKERELVAVITYCGGRTYYADSVKGRFTISRVNAKNTVYLLMYSLKPEDTAVYYCNARYRQKGLYGTAFDYWGQGTQVTVSS	high polyreactivity
QVQLVESGGGLVQAGGSLRLSCAASGNTFYGYAMGWYRQAPGKERELVASITLSGDSTYYSDSVKGRFTISRDNAKNTVYLQMNSLKPEDTAGYYCAFDGYWYGGIFYYGGQGTQVTVSS	low polyreactivity
QVQHVESGGGLVQAGGSLRLSCAASGITLNSYAMGWYRQAPGTERELVAAISSDGTYYADSVKGRFTISRDNAKNTVYLQMNSLKPEDTAVYYCAAERNHGLVGSESVGRNDYWGQGTQVTVSS	low polyreactivity
QVQLVESGGGLVQAGGSLRLSCAASGFIFYLYAMGWYRQAPGKERELVASINVSGASTRYADSVKGRFTISRDNAKNTDYLQMNSLKPEDTAVYYCAAPSRYDYWGQGTQVTVSS	low polyreactivity
QVQLVESGGGLVQAGGSLRLSWAASGSIFQYVYAMGWYRQAPGKERELVATITWSGGSTYYSDSVKGRFTISRDNAKNTVYLQMNSLKPEDTAVYYCAAESIYYPVAQYYYSFEYWGQGTQVTVSS	low polyreactivity
QVQLVESGGGLVQAGGSLRLSCAASGNIFAINAMGWYRQAPGKERELVAAITWSSARTYYADSVKGRFTISRDNAKNTVYLQMNSLKPEDTAVYYCNAPALFEYDYWGQGTQVTVSS	high polyreactivity
QVQLVESGGGLVQAGGSLRLSCAASGLILYWYAMGWYRQAPGKERELVAVITRSGRTNYADSVKGRFTSSRDNAKNTVYLQMNSLKPEDTAVYYCAADYYTSFYSWPPYDYWGQGTQVTVSS	low polyreactivity
QVQLVESGGGLVQAGGSLRLSCAASGRIFYRYVMGWYRQAPGKERELVAAISRGGGTNYADSVKGRFTISRDNAKNTVYLQMNSLKPEDTAVYYCAARGSPGAGYYWGQGTQVTVSS	high polyreactivity
QVQLVESGGGLVQAGGSLRLSCAASGSIFGYYAMGGYIQAPGYERELVAAISYSGGSTYYADSVKGRFTISRDHAKNTVYLQMNSLKPEDTAVYYCAAVRRRTRYGYRYDYWGQGTQVTVSS	high polyreactivity
QVQLVESGGGLVQAGGSLRLSCAASGSTFWFYALGWYRQAPGKERELVAAISSSGTTTYYADSVKGRFTISRDNAKNTVYLQINSLKPEDTAVSYCAAQYRGSYRTTYDYWGQCTQVTVSS	low polyreactivity
QVQLVESGGGLVQAGGSLRLSCAASGRTFRINAMGWYRQAPGKERELVAAINDGGDTYADSVKGRFTISRDNANNTVYLQMNSLKPEDTAVYYCAAPLGGGARWGRWWLYDSWGQGTQVTVSS	low polyreactivity
QVQLVESGGGLVQAGGSLRLSCAASGRIFGAYAMGWYRQAPGKERELVATITKRGGSTFYADSVKGRFTISRDNAKNTVYLQMNSLKPEDTAVYYCAVSSFYRGRYDYWGQGTQVTVSS	high polyreactivity

Sequence	polyreactivity (PSR sort gate)
QVQLVESGGGLVQAGGSLRLSCAASGRIFLSYAMGWYRQAPGKERELVAGITWNGGSTYYADSVKGRFTISRDNAKNTVYLQMNSLKPEDTAVFYCAADYFGFSYAGYNYWGQGTQVTVSS	low polyreactivity
QVQLVESGGGLVQAGGSLRLSCAASGRNFWYYAMGWYRQAPGKERELVAGITYGDGSTYYADSVKGRFTISRDNAKNTVYLQMNSLKPEDTAVYYCAVDLRSYWFRYGFDYWGQGTQVTVSS	low polyreactivity
QVQLVESGGGLVQAGGSLRLSCAASGSIIKWYAMGWYRQAPGKERELVAAISASGGSTYYADSVKGRFTISRDNAKHTVYLQMNSLKPEDTAVYYCNTDHYYSSRHYDYWGQGTQVTVSS	low polyreactivity
QVQLVESGGGLVQAGGSLRLSCADSGRIIQYNAMGWYRQAPGKERDLDAAISYRGGSTYYADSVKGRYTISRDNAKNTVYLQMNSLKPEDTAVYYCAVEYPVYYYVEYDYWGQGTQVTVSS	high polyreactivity
QVQHVESGGGLVHPGGILRLSCAASGLTFGRNAMGWYRQAPGKERELVAAISRSGGRTSYADSVKGRLTISRDNAKNTVYLQMNSLKPEDTAVYYCAARSPIYRTTYDYWGQGTQVTVSS	high polyreactivity
QVQLVESGGGLVQAGGSLRLSCAASGSIFPYYAMGWYRQAPGKERELVATITYRGGSTNYADSVKGRFTISRDNAKNTVYLQMNSLKPEDTAVYYCAAYGYVLASPYPYSFVKLGYWGQGTQVTVSS	low polyreactivity
QVQLVESGGGLVQAGGSLRLSCAASGSIFGFNAMGWYRQAPGKEREFVAAISKSGGSTYYADSVKGRFTISCDNAKNTVYLQMNSLKPEDTAVYYCNAKSRHYEPYDYWGQGTQVTVSS	high polyreactivity
QVQLVESGGGLVQAGGSLRLSCAASGNTFRWYVMGWYRQAPGKERELVAAITSSGSTTYYADSVKGRFTISRDNAKNTVYLQMNSLKPEDTAVYYCAARNYGPYDYWGQGTQVTVSS	low polyreactivity
QVQLVESGGGLVQAGGSLRLSCAASGRIFYYNAMGWYRPAPGKERELVATITGSGGSTYYADSVKGRFTISRDNAKNTVYLQMNSLKPEDTAVYYCNATRWYYDFYKLDYWGQGTKVTVSS	low polyreactivity
QVQLEESGGGLVQAGGSLRLSCAASGFTLDTYAMGWYRQAPGKERELVAAITSRGGTTYYADSVKGRFTISRDNAKNTVYLQMNSLKPEDTAVYYCNAVTKRWWYRTGYGYWGQGTQVTVSS	high polyreactivity
QVQLVESGGGLVQAGGSLRLSCAASGNIYSWYAMGWYRQAPGKERELVAVISRSGGSTYYADSVKGRFTISRDNAKNTVYLQMNSLKPEDTAVYYCAARAYRTPYSIQFDYWGQGTQVTVSS	high polyreactivity
QVQLVESGGGLVQAGVSLRLSCAASGSIFSKYVMGWYRQAPGKERELVAAISWSGTRTYYADSVKGRFTISRDYAKNSVYLQMNSLKPEDTAVYYCAKYIFTTGLGYWGQGTQVTVSS	high polyreactivity
QVQLVESGGGLVQAGGSLRLSCAASGRTFSPNAMGWYRQAPGKERELVASITAIGSRTYYADSVKGRFTISRDKAKNTVYLQMNSLKPEDTAVYYCAKDDELYGTKMYSWGQGTQVTVSS	low polyreactivity
QVQLVQSCGCLVQAGGSLRLSCAASGRIFYGNDMGWNRQAPGKERDLVAAISSGTSTNYADSVKGRFTISRDNAMNTVYLQMNSLKPEVTAVYYWAAGSYSRYLYSLYFDFDYWGQGSQVTVSS	low polyreactivity
QVQLVESGGGLVQAGGSLRLSCAATGSIFSLYAMGWYRQSPGKERELVADITYSGGNTYYADSVKGRFTISRDNAKNTVYLHMNSLKPEDTAVYYCNAYYFDYWYWYDYWGQGTQVTVSS	high polyreactivity

— the nanobody polyreactivity screen of Harvey et al. (2022)
